Data from patent publication US20140178375A1 (TRUSTEES OF THE UNIVERSITY PF PENNSYLVANIA, published 2014).

Columns and labels:
[1] = target: T1, human HER2 on T6-17 cells (human, UniProt P04626 23-1255); experiment: FACS on T6-17 cells expressing human HER2, detected by anti-his tag and secondary antibodies; control (anti-his tag and secondary antibodies only) has Geo mean 3.99
T1 construct: whole, on cells; also called HER2/neu; human epidermal growth factor receptor 2

human EGFR on NE91 cells [2] = target: T2, human EGFR on NE91 cells (human, UniProt P00533 25-1210); experiment: FACS on NE91 cells
T2 construct: whole, on cells; also called epidermal growth factor receptor

human EGFR on NE91 cells [3] = target: T2, human EGFR on NE91 cells; experiment: FACS, 100 ug S22-Fc on 1x10^5 cells, anti-His detection
Description: FACS analysis was used to detect binding of S22-Fc to HER2-expressing cell lines. Purified S22-Fc was used in FACS experiments to stain cells with different expression levels of HER2 and EGFR. Initially, 1×10⁵ cells were incubated with 100 μg S22-Fc for 30 minutes on ice. The cells were then washed and incubated with his-tag-specific rabbit antisera and secondary Alexa488-conjugated anti-rabbit antibodies, used sequentially. As a negative control, parallel cell preparations were exposed to only his-tag-specific rabbit antisera and secondary antibodies.

[4] = target: T1, human HER2 on T6-17 cells; experiment: FACS on T6-17 cells

| FACS Geo mean [1] | binding result (human EGFR on NE91 cells [2]) | binding result (human EGFR on NE91 cells [3]) | binding result [4] | Binder |
| --- | --- | --- | --- | --- |
| 39.1 | binds | – | – | LS22FcT322AG7 (Fc fusion, It has the N-terminal MLCGGGG before the S22 peptide, the T322A Fc and a His tag; also called S22-FcT322A#2; S22FcT322A#2) MLCGGGGYCFPDEEGACYGGGGGSDKTHTCPPCPAPELLGGPSVFLFPPKPKDTLMISRTPEVTCVVVDVSHEDPEVKFNWYVDGVEVHNAKTKPREEQYNSAYRVVSVLTVLHQDWLNGKEYKCKVSNKALPAPIEKTISKAKGQPREPQVYTLPPSRDELTKNQVSLTCLVKGFYPSDIAVEWESNGQPENNYKTTPPVLDSDGSFFLYSKLTVDKSRWQQGNVFSCSVMHEALHNHYTQKSLSLSLEHHHHHH |
| 28.7 | – | – | – | LS22FcT322AS7 (Fc fusion) S22 peptide-Fc fusion chain with C-terminal His tag: MLCGGGSYCFPDEEGACYGGGGGSDKTHTCPPCPAPELLGGPSVFLFPPKPKDTLMISRTPEVTCVVVDVSHEDPEVKFNWYVDGVEVHNAKTKPREEQYNSAYRVVSVLTVLHQDWLNGKEYKCKVSNKALPAPIEKTISKAKGQPREPQVYTLPPSRDELTKNQVSLTCLVKGFYPSDIAVEWESNGQPENNYKTTPPVLDSDGSFFLYSKLTVDKSRWQQGNVFSCSVMHEALHNHYTQKSLSLSLEHHHHHH |
| 51 | – | – | – | LS22FcG7 (Fc fusion, Wild type Fc fragment with the N-terminal MLCGGGG before the S22 peptide, and a His tag) MLCGGGGYCFPDEEGACYGGGGGSDKTHTCPPCPAPELLGGPSVFLFPPKPKDTLMISRTPEVTCVVVDVSHEDPEVKFNWYVDGVEVHNAKTKPREEQYNSTYRVVSVLTVLHQDWLNGKEYKCKVSNKALPAPIEKTISKAKGQPREPQVYTLPPSRDELTKNQVSLTCLVKGFYPSDIAVEWESNGQPENNYKTTPPVLDSDGSFFLYSKLTVDKSRWQQGNVFSCSVMHEALHNHYTQKSLSLSLEHHHHHH |
| 27.2 | – | binds | – | S22-Fc (Fc fusion, S22 peptide, glycine-serine linker, human IgG1 Fc (hinge part, CH2, CH3) and C-terminal His tag; Expressed in E. coli and purified on Ni-sepharose; also called S22-Fc fusion protein) MAYCFPDEEGACYGGGGGSDKTHTCPPCPAPELLGGPSVFLFPPKPKDTLMISRTPEVTCVVVDVSHEDPEVKFNWYVDGVEVHNAKTKPREEQYNSTYRVVSVLTVLHQDWLNGKEYKCKVSNKALPAPIEKTISKAKGQPREPQVYTLPPSRDELTKNQVSLTCLVKGFYPSDIAVEWESNGQPENNYKTTPPVLDSDGSFFLYSKLTVDKSRWQQGNVFSCSVMHEALHNHYTQKSLSLSLEHHHHHH |
| – | binds | – | binds | S22-FcT322A (Fc fusion) MAYCFPDEEGACYGGGGGSDKTHTCPPCPAPELLGGPSVFLFPPKPKDTLMISRTPEVTCVVVDVSHEDPEVKFNWYVDGVEVHNAKTKPREEQYNSAYRVVSVLTVLHQDWLNGKEYKCKVSNKALPAPIEKTISKAKGQPREPQVYTLPPSRDELTKNQVSLTCLVKGFYPSDIAVEWESNGQPENNYKTTPPVLDSDGSFFLYSKLTVDKSRWQQGNVFSCSVMHEALHNHYTQKSLSLSLEHHHHHH |
